Here are results for 3 molecules from US20200247893A1 (CITY OF HOPE, published 2020).

Experiment [1] deals with T1, recombinant human IL1RAP protein (human, UniProt Q9NPH3 21-359, limits assumed).
T1 construct: also called recombinant IL1RAP protein; Interleukin-1 receptor accessory protein
As to the kind of experiment: ELISA: recombinant IL1RAP protein coated at 1 ug/ml, purified IgG in three-fold serial dilution, HRP-anti-human FC detection, OD450.

In experiment [2] the target is T1, recombinant human IL1RAP protein. As to the kind of experiment: SPR, Biacore T100. (In general: In SPR one partner is held on a chip, and binding of the other changes the refractive index at the surface.)
Experiment [3] has the same target. In words: method not given.
In a further experiment the target is T2, CD3 on T cells (Homo sapiens (Human), UniProt P07766 23-207; P04234 22-171; P09693 23-182; P20963 22-164).
T2 construct: also called T cell co-receptor CD3
T2 sequence (P07766 23-207 limits assumed, chain 1 of 4): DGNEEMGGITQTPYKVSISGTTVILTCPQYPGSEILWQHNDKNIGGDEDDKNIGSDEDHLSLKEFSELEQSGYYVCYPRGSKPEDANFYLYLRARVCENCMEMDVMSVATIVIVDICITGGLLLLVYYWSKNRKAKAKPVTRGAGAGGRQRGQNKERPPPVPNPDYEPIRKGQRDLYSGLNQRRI
T2 sequence (P04234 22-171 limits assumed, chain 2 of 4): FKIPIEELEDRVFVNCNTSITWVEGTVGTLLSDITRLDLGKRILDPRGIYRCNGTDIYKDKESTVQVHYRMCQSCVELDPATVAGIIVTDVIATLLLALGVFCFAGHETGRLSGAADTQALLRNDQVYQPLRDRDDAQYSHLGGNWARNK
T2 sequence (P09693 23-182 limits assumed, chain 3 of 4): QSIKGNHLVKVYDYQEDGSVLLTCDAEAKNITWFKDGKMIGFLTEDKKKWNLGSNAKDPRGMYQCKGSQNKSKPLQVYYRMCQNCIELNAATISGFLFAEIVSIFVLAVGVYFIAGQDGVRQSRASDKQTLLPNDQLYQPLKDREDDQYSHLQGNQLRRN
T2 sequence (P20963 22-164 limits assumed, chain 4 of 4): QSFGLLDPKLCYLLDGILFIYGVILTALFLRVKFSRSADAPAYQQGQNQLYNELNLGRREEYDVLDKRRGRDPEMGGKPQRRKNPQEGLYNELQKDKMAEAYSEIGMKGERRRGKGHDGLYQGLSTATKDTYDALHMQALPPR
In words: flow cytometry: T cells incubated with 1D5 in place of the bispecific antibody, then his-tagged recombinant IL1RAP, detection with FITC-anti-his antibody.

Experiment [4] addresses T1, recombinant human IL1RAP protein. As to the kind of experiment: ELISA; 1 µg/ml recombinant IL1RAP coated; antibody in three-fold dilutions from 1 µg/ml; HRP-anti-human FC detection. (An ELISA detects its analyte on a solid surface through an enzyme-linked reagent.)
Protocol: Purified antibodies in three-fold serial dilution starting from 1 μg/ml are added to each well. HRP-anti-human FC antibody is used as detection antibody.

T1 sequence (Q9NPH3 21-359 limits assumed): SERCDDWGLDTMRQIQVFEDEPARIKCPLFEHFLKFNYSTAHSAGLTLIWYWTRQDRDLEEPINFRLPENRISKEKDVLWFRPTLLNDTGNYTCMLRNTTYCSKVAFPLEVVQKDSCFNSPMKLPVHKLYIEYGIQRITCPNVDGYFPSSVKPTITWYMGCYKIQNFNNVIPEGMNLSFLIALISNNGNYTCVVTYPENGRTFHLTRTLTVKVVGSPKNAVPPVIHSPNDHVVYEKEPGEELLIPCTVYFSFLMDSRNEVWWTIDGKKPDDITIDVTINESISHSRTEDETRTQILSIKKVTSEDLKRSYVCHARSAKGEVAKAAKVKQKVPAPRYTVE

B1: D1A4 (antibody, V domains shown)
VH: PGPLVQSGAEVKKPGASVKVSCTTSGFPFNMYGFNWVRQAPGQGLEWMGWISAYNGRTNYAQKFQGRVTMTTDTSTSTSYVELESLTSDDTAVYYCARSGKQQLGSAQPLDSWGQGTLIIVSS
VL: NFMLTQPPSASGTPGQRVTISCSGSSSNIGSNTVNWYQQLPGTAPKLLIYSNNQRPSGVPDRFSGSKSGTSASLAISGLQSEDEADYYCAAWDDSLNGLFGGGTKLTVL
On to B1, for which the “EC50 (read off the curve)” value in experiment [1] was approximately 0.1 µg/mL.

B2: 2E12 (antibody, V domains shown)
VH: GGGLVQPGGSLRLSCEASGFTFSRYWMHWVRQAPGKGLVWVSRIHTDGSSISYADSVKGRFTISRDNAKNTLYLQMNSLRAEDTAVYYCARDIGGGYSYGSVDYWGQGTLVTVSS
VL: QPVLTQSPSVSVAPGKTTRITCGGDNIGSKSVHWFQQKPGQAPVLVVFGGGDRPSGIPERFSGSNSGNTATLIISGVEGGDEADYYCQVWDGSTDHYIFGAGTMVTVL
Take B2: the “EC50 (read off the curve)” value in experiment [1] was approximately 0.09 µg/mL.

B3: human monoclonal antibody 1D5 (anti-IL1RAP) (antibody, V domains shown)
VH: QVQLVQSGAEVKKPGESLKISCKGSGYSFSSHWIGWVRQMPGKGLEWMGIIYPGDSDTRYSPSFQGQVTISADKSISTAYLQWSSLKASDTAMYYCARGELPGEAYYFDNWGQGTLVTVSS
VL: not shown
notes: also called clone ID5
Take B3: the Kd in experiment [2] is 21.2 nM; in experiment [3], approximately 20 nM. Also, the binding result in the experiment with CD3 on T cells is recorded as “no binding”. For the same molecule, in experiment [4], the EC50 was 0.0049 µg/mL.

By EC50 (read off the curve) is commonly meant the concentration that produces a half-maximal response. Usually Kd stands for the constant that tells how readily two partners part at equilibrium. As usually defined, the EC50 is the concentration at which the effect is half-maximal.
